Each block holds one binder with its values, some of them ahead of it.
B5: N-10 peptide (PSMGFR minus 10 amino acids from the N-terminus) (peptide)
peptide: QFNQYKTEAASRYNLTISDVSVSDVPFPFSAQSGA
notes: also called N-10 PSMGFR; PSMGFR N-10

Experiments:
[1] = target: T1, N+20/C-27 peptide (20 amino acids added onto the N-terminus and 27 deleted from the C-terminus of PSMGFR); test: ELISA (FIG. 63)
T1 peptide: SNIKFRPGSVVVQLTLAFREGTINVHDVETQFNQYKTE
Procedure: (§1) ELISA assays were performed to determine if, in addition to recognizing their immunizing peptide, they recognized PSMGFR, N−10 or C−10. In addition, they were tested for their ability to bind to N+20/C−27, N+9/C−9. We first did the ELISA assay on our set of reference antibodies, MNC2, MNE6, which we know are cancer-specific plus MNC3, which we know recognizes stem cells and progenitor cells (FIG. 63A-63B). None of the reference antibodies bound to the N+20/C−27 peptide. MNC2 and MNE6 cannot bind to PSMGFR peptides with 27, 10 or 9 C-terminal deletions, however, MNC3 binds to C−10 and to N+9/C−9 peptides.

[2] = target: T2, N+9/C-9 peptide (9 amino acids added onto the N-terminus and 9 deleted from the C-terminus of PSMGFR); test: ELISA (FIG. 64A)
T2 peptide: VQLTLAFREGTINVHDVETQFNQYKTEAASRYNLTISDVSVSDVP

[3] = target: T3, C-10 peptide (PSMGFR minus 10 amino acids from the C-terminus); test: ELISA (FIG. 64A)
T3 construct: also called C-10 PSMGFR; PSMGFR C-10
T3 peptide: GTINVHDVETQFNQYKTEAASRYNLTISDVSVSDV

[4] = target: B5; test: ELISA (FIG. 2B-2C)
[5] = target: T4, PSMGFR peptide (Primary Sequence of the MUC1 Growth Factor Receptor); test: ELISA (FIG. 2B)
T4 construct: synthetic peptide immobilised on ELISA plates; also called MUC1* peptide; MUC1* extra cellular domain peptide
T4 peptide: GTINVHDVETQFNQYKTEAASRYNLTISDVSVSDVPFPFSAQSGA

[6] = target: B5; test: ELISA
[7] = target: T3, C-10 peptide (PSMGFR minus 10 amino …); test: ELISA
[8] = target: T1, N+20/C-27 peptide (20 amino acids added …); test: ELISA (FIG. 65A)
Text: The antibodies being tested were derived from animals immunized with the N+20/C−27 peptide. The first selection criteria was to confirm that the antibodies bound to the immunizing N+20/C−27 peptide. […] Although these antibodies were raised against the N+20/C−27 peptide, all but one, 45C11, still bind to the PSMGFR peptide. […] 1E4 was able to bind to the N+20/C−27 peptide, the PSMGFR and the N−10 peptide, consistent with the idea that its epitope must lie within the […] sequence. […] The color of the bars for each antibody in the ELISA graph are color coded to match the deductive cognate sequence, or a portion thereof, of that antibody.
This same ELISA assay was performed on the antibodies of the invention (FIG. 64-66 and FIG. 201). Note that only 20A10 exactly matches the binding profile of MNC2 and MNE6. 25E6, 28F9 and 18G12 are all able to bind to the N−10 peptide. 18B4 is the only antibody raised against the PSMGFR peptide that requires the 10 most N-terminal amino acids of the peptide. The color of the bars for each antibody in the ELISA graph are color coded to match the deductive cognate sequence, or a portion thereof, of that antibody. In addition, another set of antibodies was assayed by ELISA (FIG. 201). Of this set, B12, B2, B7, B9, 8C7F3, and H11 bound to the PSMGFR peptide, bound to the N−10 peptide, but not to the C−10 peptide (FIG. 201).

[9] = target: T4, PSMGFR peptide (Primary Sequence of the …); test: ELISA (FIG. 65)
[10] = target: T4, PSMGFR peptide (Primary Sequence of the …); test: ELISA
[11] = target: T1, N+20/C-27 peptide (20 amino acids added …); test: ELISA (FIG. 64A)
NME7-AB (recombinant) = target: T5, NME7-AB (recombinant) (Homo sapiens (Human), UniProt Q9Y5B8 92-376); test: ELISA (FIG. 2A-2D)
T5 construct: the entry ends in a His tag; also called NM23-H7
T5 sequence: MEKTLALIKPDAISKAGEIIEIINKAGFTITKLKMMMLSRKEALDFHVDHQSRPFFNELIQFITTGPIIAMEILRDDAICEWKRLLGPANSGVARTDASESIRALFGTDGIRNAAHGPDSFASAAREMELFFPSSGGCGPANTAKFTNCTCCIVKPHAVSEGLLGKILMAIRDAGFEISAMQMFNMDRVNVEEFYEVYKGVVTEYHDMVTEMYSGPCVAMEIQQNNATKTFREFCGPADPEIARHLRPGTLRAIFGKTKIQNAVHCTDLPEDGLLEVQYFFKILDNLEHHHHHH
Procedure: (§2) FIGS. 2A-2I show results of ELISA assays. MUC1* peptides PSMGFR, PSMGFR minus 10 amino acids from the N-terminus aka N−10, or PSMGFR minus 10 amino acids from the C-terminus, aka C−10 are immobilized on the plate and the following are assayed for binding: NME7-AB (FIG. 2A), MN-C2 monoclonal antibody (FIG. 2B), MN-E6 monoclonal antibody (FIG. 2C), or dimeric NME1 (FIG. 2D). […] MUC1* peptides PSMGFR minus 10 amino acids from the N-terminus aka N−10, or PSMGFR minus 10 amino acids from the C-terminus, aka C−10, are immobilized on the plate and the following are assayed for binding: MN-C3 (FIG. 2E) and MN-C8 (FIG. 2F).

[12] = target: T4, PSMGFR peptide (Primary Sequence of the …); test: ELISA (FIG. 9)
[13] = target: T2, N+9/C-9 peptide (9 amino acids added …); test: ELISA (FIG. 63)
Procedure: as §1

[14] = target: B5; test: Table 4 criterion 1, Binds N-10
[15] = target: T3, C-10 peptide (PSMGFR minus 10 amino …); test: ELISA (FIG. 2E)
Procedure: as §2

N-19/C-5 peptide = target: T6, N-19/C-5 peptide; test: ELISA (FIG. 69)
T6 peptide: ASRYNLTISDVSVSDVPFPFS
Procedure: (§3) In order to further refine the epitopes to which each antibody binds, a series of smaller peptides derived from the PSMGFR sequence were synthesized: N−30 (SEQ ID NO:7), N−26 (SEQ ID NO:6), N−19 (SEQ ID NO:4), N−10/C−5 (SEQ ID NO:8), N−19/C−5 (SEQ ID NO:9). Each of the antibodies was tested in an ELISA assay for their ability to bind to this refined set of peptides, plus PSMGFR, N−10 and C−10 peptides (FIG. 67-69).

N-30 peptide = target: T7, N-30 peptide; test: ELISA (FIG. 69)
T7 peptide: SVSDVPFPFSAQSGA
Procedure: as §3

N-26 peptide = target: T8, N-26 peptide; test: ELISA (FIG. 69)
T8 peptide: ISDVSVSDVPFPFSAQSGA
Procedure: as §3

[16] = target: B5; test: ELISA (FIG. 69)
Procedure: as §3

N-10/C-5 peptide = target: T9, N-10/C-5 peptide; test: ELISA (FIG. 69)
T9 peptide: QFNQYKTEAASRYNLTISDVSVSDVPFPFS
Procedure: as §3

N-19 peptide = target: T10, N-19 peptide; test: ELISA (FIG. 69)
T10 peptide: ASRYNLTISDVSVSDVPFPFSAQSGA
Procedure: as §3

[17] = target: T2, N+9/C-9 peptide (9 amino acids added …); test: ELISA (FIG. 66A)

B2: 1E4 mouse monoclonal antibody (antibody, V domains shown)
VH: QVQLQQSGAELVRPGSSVKISCKASGYAFSTYWMNWVKQRPGQGLEWIGQIYPGDSDTNYNGKFKGKATLTADKSSNTAYMQLSSLTSEDSAVFFCARGNHASMDYWGQGTSVTVSS
VL: DVVMTQTPLSLPVSLGDQASISCRSSQSLVHSNGNTYLHWYLQKPGQSPKLLIYKVSNRFSGVPDRFSGSGSGTDFTLKISRVEAEDLGVYFCSQKTHVPWTFGGGTKLEIK
notes: raised against N+20/C-27; also called MN-1E4; N+20/C-27 antibody 1E4
- binding result [6]: binds
- binding result [7]: binds
- binding result [8]: binds
- binding result [9]: binds

B3: 18B4 mouse monoclonal antibody (antibody, V domains shown)
VH: EVKLEESGGGLVQPGGSMKLSCAASGFTFNDAWMDWVRQSPEKGLEWVAEIRSTANIHTTYYAESVQGRFTISRDDSKSSVYLQMNSLRAEDTGIYYCTPLLYGFAYWGQGTLVTVSA
VL: DVVMTQSPLSLPVSLGDQASISCRTSQSLVHSNGNTYLHWHLQKPGQSPKVLIYKVSSRFSGVPDRFSGSGSGTDFTLKISRVEAEDLGVYFCSQNTHVPYTFGGGTKLEIK
notes: raised against PSMGFR; also called anti-PSMGFR antibody 18B4
- binding result [10]: binds
- binding result [6]: no binding
- binding result [7]: binds
- binding result [2]: binds
- binding result [11]: binds

B4: 20A10 mouse monoclonal antibody (antibody, V domains shown)
VH: EVMLVESGGGLVKPGGSLKLSCAASGFTFSTYAMSWIRQTPEKRLEWVASIGRAGSTYYSDSVKGRFTISRDNVRNILYLQMSSLRSEDTAMYYCARGPIYNDYDEFAYWGQGTLVTVSA
VL: NIMMTQSPSSLAVSAGEKVTMSCKSSQSVLYSSNQKNYLAWYQQKPGQSPKLLIYWASTRESGVPDRFTGSGSGTDFTLTISSVQAEDLAVYYCHQYLSSLTFGAGTKLELK
notes: raised against PSMGFR; also called MN-20A10; anti-PSMGFR antibody 20A10
- binding result [10]: binds
- binding result [6]: binds
- binding result [2]: no binding
- binding result [3]: no binding

Binder: B5
- binding result (NME7-AB (recombinant)): binds

The remaining lines, values ahead:

- binding result [1]: no binding
- binding result [2]: no binding
- binding result [3]: no binding
- binding result [4]: binds
- binding result [5]: binds
B1: MN-C2 mouse monoclonal anti-MUC1* antibody (antibody, V domains shown)
VH: EVQLEESGGGLVKPGGSLKLSCAASGFTFSGYAMSWVRQTPEKRLEWVATISSGGTYIYYPDSVKGRFTISRDNAKNTLYLQMSSLRSEDTAMYYCARLGGDNYYEYFDVWGAGTTVTVSS
VL: DIVITQSTASLGVSLGQRATISCRASKSVSTSGYSYMHWYQQRPGQPPKLLIYLASNLESGVPARFSGSGSGTDFTLNIHPVEEEDAATYYCQHSRELPFTFGGGTKLEIKR
notes: mouse monoclonal raised against PSMGFR; also called Min-C2

- binding result [12]: binds
- binding result [13]: binds
- binding result [1]: no binding
- binding result [14]: binds
- binding result [15]: binds
B6: MN-C3 mouse monoclonal anti-MUC1* antibody (antibody, V domains shown)
VH: QVQLQQSGPELVRPGVSVKISCKGSGYRFTDYAMNWVKQSHAKSLEWIGVISTFSGNTNFNQKFKGKATMTVDKSSSTAYMELARLTSEDSAMYYCARSDYYGPYFDYWGQGTTLTVSS
VL: DVLMTQTPLSLPVSLGDQASISCRSSQTIVHSNGNTYLEWYLQKPGQSPKLLIYKVSNRFSGVPDRFSGSGSGTDFTLKINRVEAEDLGVYYCFQGSHVPFTFGSGTKLEIK
notes: mouse monoclonal raised against PSMGFR; also called Min-C3

- binding result (N-19/C-5 peptide): no binding
- binding result (N-30 peptide): no binding
- binding result (N-26 peptide): no binding
- binding result [16]: no binding
- binding result (N-10/C-5 peptide): no binding
- binding result (N-19 peptide): no binding
B7: 17H6 mouse monoclonal antibody (antibody, V domains shown)
VH: EVKLVESGGGLVQPGGSLRLSCATSGFTFTDYYMSWVRQPPRKALEWLGFIRNKANGYTAEYSASVKGRFTISRDVSQNLLYLQMNILRAEDSATYYCAKDYYGSNPAWFAYWGQGTLVTVSA
VL: DILMTQTPLSLPVSLGDQASISCRSSQSIVHSSGNTFLEWYLQKPGQSPKLLIYKVSNRFSGVPDRFSGSGSGIDFTLKISRVEAEDLGVYYCFQGSHVPFTFGSGTKLEIK
notes: raised against N+9/C-9; also called N+9/C-9 antibody 17H6

- binding result [6]: no binding
- binding result [17]: binds
B8: 3C5 mouse monoclonal antibody (antibody, V domains shown)
VH: QIQLVQSGPELKKPGETVKISCKASGYTFTNYGMNWVKQAPGKGLKWMGWINTYTGKPTYADDFKGRFAFSLETSASTAYLQINNLKNEDTATYFCARGGLDGYYGYWGQGTTLTVSS
VL: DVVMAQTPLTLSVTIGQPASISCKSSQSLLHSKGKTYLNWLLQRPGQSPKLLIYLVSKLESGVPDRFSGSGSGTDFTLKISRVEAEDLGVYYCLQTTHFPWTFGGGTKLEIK
notes: raised against N+9/C-9; also called N+9/C-9 antibody 3C5

From patent US20220184120A1 (MINERVA BIOTECHNOLOGIES, published 2022)
